From publication PMC4098917, “Assembly of the Type Two Secretion System in Aeromonas hydrophila Involves Direct Interaction between the Periplasmic Domains of the Assembly Factor ExeB and the Secretin ExeD” (PLoS ONE, 2014)

Legend:
[1] = target: dimerization domain (40 aa) of the Gal4 transcriptional activator protein (pBT-LGF2); assay: two-hybrid; bacterial two-hybrid (BacterioMatch, E. coli BM2H; bait pBT, target pTRG); minimum inhibitory concentration of carbenicillin (0-12.8 mg/mL), 0.1 mM IPTG, overnight at 30°C
[2] = target: T1, periplasmic domain of ExeB (bacterial two-hybrid fusion) (A. hydrophila, UniProt P45755 58-226); assay: two-hybrid; bacterial two-hybrid (BacterioMatch, E. coli BM2H; bait pBT, target pTRG); β-galactosidase activity of permeabilized cells, 0.02 mM IPTG; details: partners not purified
T1 construct: periplasmic domain of ExeB, A. hydrophila, amplified from pGAD424-P-ExeB; Stood in pBT and in pTRG; also called P-ExeB; source: bacterial two-hybrid fusion (E. coli BM2H)
T1 sequence: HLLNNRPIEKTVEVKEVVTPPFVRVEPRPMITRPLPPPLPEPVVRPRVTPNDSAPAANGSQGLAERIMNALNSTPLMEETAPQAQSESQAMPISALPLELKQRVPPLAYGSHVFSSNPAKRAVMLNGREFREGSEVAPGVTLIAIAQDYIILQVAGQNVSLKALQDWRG

[3] = target: T2, N-His-tagged periplasmic domain of ExeD, purified (A. hydrophila, UniProt P31780 26-355); assay: fluorescence polarisation; steady state rotational anisotropy; F-labeled P-ExeB 50 nM, titration of P-ExeD 0-4000 nM, RT buffer, 21°C; apparent Kd from a rectangular hyperbola; details: both partners purified
T2 construct: periplasmic domain of ExeD, A. hydrophila, in NdeI/XhoI of pET30a; the printed primers carry no His codons and no stop codon, so the tag may be the vector's C-terminal one (my surmise); also called P-ExeD; N-His-tagged-P-ExeD; source: E. coli BL21, purified (Ni-NTA, Resource S ion exchange)
T2 sequence: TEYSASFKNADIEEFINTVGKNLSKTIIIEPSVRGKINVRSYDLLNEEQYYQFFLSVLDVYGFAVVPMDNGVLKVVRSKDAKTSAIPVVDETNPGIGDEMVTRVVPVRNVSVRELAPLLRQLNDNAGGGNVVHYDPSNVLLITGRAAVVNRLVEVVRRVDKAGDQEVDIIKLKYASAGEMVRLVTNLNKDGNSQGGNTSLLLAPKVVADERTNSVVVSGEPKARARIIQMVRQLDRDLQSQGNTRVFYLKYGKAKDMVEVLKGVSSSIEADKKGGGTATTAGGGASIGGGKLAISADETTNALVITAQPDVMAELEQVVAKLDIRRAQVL

**Q.** For “domain (90aa) of the mutant form of the Gal11 protein (pTRG-Gal11P) (domain or fragment)”, which MIC of carbenicillin [1] is on record?
**A.** 12.8 mg/mL

B1: periplasmic domain of ExeD (bacterial two-hybrid fusion) (domain or fragment)
chain: TEYSASFKNADIEEFINTVGKNLSKTIIIEPSVRGKINVRSYDLLNEEQYYQFFLSVLDVYGFAVVPMDNGVLKVVRSKDAKTSAIPVVDETNPGIGDEMVTRVVPVRNVSVRELAPLLRQLNDNAGGGNVVHYDPSNVLLITGRAAVVNRLVEVVRRVDKAGDQEVDIIKLKYASAGEMVRLVTNLNKDGNSQGGNTSLLLAPKVVADERTNSVVVSGEPKARARIIQMVRQLDRDLQSQGNTRVFYLKYGKAKDMVEVLKGVSSSIEADKKGGGTATTAGGGASIGGGKLAISADETTNALVITAQPDVMAELEQVVAKLDIRRAQVL
notes: periplasmic domain of ExeD, A. hydrophila, amplified from pGAD424-P-ExeD; Stood in pTRG and in pBT; also called P-ExeD; full-length P-ExeD; source: bacterial two-hybrid fusion (E. coli BM2H)
**Q.** How did the “fold β-galactosidase activity over cells with the empty vectors” value [2] turn out when B1 was run?
**A.** > 11 fold

B2: fluorescein-EX labeled N-His-tagged periplasmic domain of ExeB (domain or fragment)
chain: HLLNNRPIEKTVEVKEVVTPPFVRVEPRPMITRPLPPPLPEPVVRPRVTPNDSAPAANGSQGLAERIMNALNSTPLMEETAPQAQSESQAMPISALPLELKQRVPPLAYGSHVFSSNPAKRAVMLNGREFREGSEVAPGVTLIAIAQDYIILQVAGQNVSLKALQDWRG
modifications: fluorescein (Fluorescein-EX Protein Labeling kit), ~0.8 moles of dye per mole of protein
notes: periplasmic domain of ExeB, A. hydrophila, in pET30a; Same construct as m27, purified and labelled; also called F-labeled P-ExeB; fluorescein-EX labeled P-ExeB; source: E. coli BL21, purified (Ni-NTA, Resource S ion exchange)
**Q.** How did the Kd [3] turn out when B2 was run?
**A.** 1190 ± 160 nM
